The results in this text go back to US10723806B2, “Method of introducing nucleic acid into plant cells” (RIKEN, priority 2012, dated 2020).

Ends that are not written are not given here.

The test system of data set [1] is Nicotiana benthamiana leaf. The data set can be described thus: In-vivo transfection of tobacco leaf with RLuc-encoding pDNA complex, Renilla luciferase assay. Particulars: for RLuc expression (relative photometric unit/protein weight): peptide alone as carrier of pDNA, N/P ratio 0.5, 12 hours, benthamiana tobacco leaf; for transfection efficiency (RLuc assay) compared to complexes having other N/P ratios: N/P ratio 0.5, tobacco leaf; for incubation time showing the highest transfection efficiency: tobacco leaf, sampled 12 to 144 hours. On the procedure:
In-vivo transfection experiment using the tobacco leaf was performed to evaluate an ability of a carrier peptide-pDNA complex to deliver a gene into plant cells through a cell wall. Complexes of pDNA encoding RLuc and GFP serving as a reporter gene with R9-BP 100 and (KH)9-BP100 were directly allowed to permeate into Nicotiana benthamiana leaf. To determine the most efficient N/P ratio of a pDNA complex in the range of 0.1 to 20, a transfection efficiency is quantitatively characterized by use of RLuc assay.
A target plant was prepared as follows. Seeds of benthamiana tobacco were germinated in a pot containing a culture medium, which is a mixture of a soil (Pro-Mix) and vermiculite in a ratio of 2:1. The benthamiana tobacco plant was grown up to three weeks in a plant incubator (Biotron NK System) under constant light irradiation for 24 hours at a temperature of 29° C.
Leaves of benthamiana tobacco were sufficiently spread and directly impregnated with a solution (about 100 μL) of a complex comprising pDNA encoding green fluorescence protein (GFP) and Renilla luciferase (RLuc) by use of a syringe without a needle. The benthamiana tobacco plants thus treated were incubated in a plant incubator separately at a temperature of 29° C. and 21° C. under constant light irradiation for 16 hours per day until 6 days. To quantitatively evaluate RLuc gene expression, Renilla luciferase assay (Promega) was performed in accordance with the protocol provided by a manufacturer (n=4).
To be described in brief, sampling of the leaf impregnated was performed periodically in the range of 12 hours to 144 hours by cutting a square (1 cm^2) around an impregnated section. The samples each were lysed by use of Renilla Luciferase Assay Lysis Buffer (Promega). The lysate was briefly centrifuged and the supernatant was mixed with Renilla Luciferase Assay Substrate and Renilla Luciferase Assay Buffer (Promega). Gene expression was evaluated by a multi-mode microplate reader (Spectra MAX M3, Molecular Devices Corporation) based on the intensity (relative photometric unit) of photoluminescence. The amount of protein in the supernatant was determined by BCA protein assay (Pierce Biotechnology) to obtain a relative photometric unit/protein weight (RLU/mg). A transformant with RLuc gene-encoding pDNA via Agrobacterium (Agrobacterium) was used as a positive control in the experiment.
The statistical difference in transfection efficiency was determined by independent t-test using bilateral distribution. It was regarded that a statistically-significant difference is present at p<0.05. The data obtained in a cell survivability experiment are shown as an average±a standard deviation (n=4).

In another data set the test system is Arabidopsis thaliana L. The data set can be described thus: Introduction of giant DNA (80 kbp luciferase plasmid) into Arabidopsis thaliana L. Type of data set: in vivo. Particulars: complex with 80 kbp luciferase plasmid, twelve hours after introduction. On the procedure:
A plasmid (80 kbp) encoding luciferase was prepared by use of Bacillus subtilis and introduced into Arabidopsis thaliana L. by use of a carrier peptide ((KH)9-BP100). Twelve hours after introduction of the complex, luciferase was extracted from the leaf and subjected to quantitative analysis.

Data set [2] in a line: Zeta potential of carrier peptide-pDNA complexes. Type of data set: physicochemical. Particulars: pDNA complex. On the procedure: (§1) Two types of pDNA, i.e., green fluorescence protein (GFP)-encoding P35S-GFP (S65T)-TNOS and Renilla luciferase (RLuc)-encoding P35S-RLuc-TNOS, were used as reporter genes. All pDNA molecules were amplified in a competent DH5α E. coli (Takara) and purified by an Endofree Plasmid Giga Kit (Qiagen). To prepare a carrier peptide-pDNA complex, a carrier peptide (0.5 g/L) was mixed with a pDNA solution (about 1.0 mg/mL) so as to have different N/P ratios (0.5, 1, 2, 5, 10 and 20) at 25° C. Immediately after mixing, complexes were characterized by a zeta potential meter (Zetasizer Nano-ZS, Malvern Instruments Ltd) and an atomic force microscope (Seiko Instruments).
(§2) Solutions containing complexes each were diluted with ultra-pure water (MilliQ) up to a final volume of 800 μL and subjected to measurement of zeta potential and size. The zeta potential and zeta shift of the solution samples were measured three times by a zeta potential meter and averages of data were obtained by use of Zetasizer software ver 6.20 (Malvern Instruments Ltd). Dynamic light scattering (DLS) was performed to determine hydrodynamic diameters. Subsequently, polydispersion indexes (PDI) were determined by use of a zeta nanosizer (Zetasizer software ver 6.20) using He—Ne laser (633 nm) at 25° C. and a backscattering detection angle of 173°. Observation by an AFM was performed by fixing a complex solution on cut mica and using a silicon cantilever in air at room temperature in a tapping mode at a spring constant of 1.3 N/m. A cantilever tip rotation effect was obtained by calculation and true dimensions of complexes were obtained by the method previously reported (K. Numata, Y. Kikkawa, T. Tsuge et al., Macromol Biosci 6 (1), 41, 2006; K. Numata, T. Hirota, Y. Kikkawa et al., Biomacromolecules 5 (6), 2186, 2004). For gel retardation assay, each sample (40 μL) containing 1.0 μg of pDNA was mixed with a loading buffer, analyzed on a 1% agarose gel (TAE buffer, 100 V, 30 minutes) and stained with ethidium bromide.

Data set [3] is described as follows: Dynamic light scattering (DLS) size and PDI of carrier peptide-pDNA complexes. Type of data set: physicochemical. Particulars: complex with pDNA. Here is the method:
Ionic complexes of carrier peptides (R9-BP100 and (KH)9-BP100) different in N/P ratio and pDNA encoding a reporter gene were prepared and characterized by use of dynamic light scattering (DLS), an atomic force microscope (AFM), a zeta potential meter and agarose gel electrophoresis. The N/P ratio herein refers to the ratio of the number of amine groups from the carrier peptide and the number of phosphate groups from pDNA.
as §1, §2

The subject of the next data set is pDNA. The data set can be described thus: Gel retardation assay (agarose gel electrophoresis) of carrier peptide-pDNA complexes. Type of data set: physicochemical. Particulars: pDNA complex. Here is the method: as §2
Data set [4] relates to mitochondria of leaf of Arabidopsis thaliana L. The data set can be described thus: Organelle selective gene introduction, Renilla luciferase expression in mitochondria of Arabidopsis thaliana L. leaf. It counts as in vivo. Particulars: complex with pDONRcox2p: rluc/gfp. Here is the method: A carrier peptide comprising a mitochondrial transit sequence (Cytochrome c oxidase subunit IV (yeast)) and a polycationic sequence was synthesized. In other words, ([…]) (SEQ ID NO: 43) was synthesized by the solid phase peptide synthesis. The mitochondrial transit sequence is represented by MLSLRQSIRFFK (SEQ ID NO: 44) and the polycationic sequence is represented by KHKHKHKHKHKHKHKHKH) (SEQ ID NO: 22). Then, a complex was prepared from the carrier peptide synthesized and a plasmid vector (pDONRcox2p: rluc/gfp) that can function in mitochondria. In the same manner as in the above Examples, the complex was introduced into a leaf of Arabidopsis thaliana L. and expression of a reporter gene (Renilla Luciferase) in the mitochondria was quantitatively evaluated. Using a promoter (cox) which specifically functions in mitochondria, whether the complex was specifically introduced into the mitochondria was determined.

The mark [5] stands for this setting: N/P ratio within the range of 2 to 20.

On to “KHKHKHKHKHKHKHKHKH [(KH)9, reference compound]”, for which the “RLuc expression (relative photometric unit/protein weight)” value in data set [1] is listed as 340±60 RLU/mg.
As for “KHKHKHKHKHKHKHKHKHKKLFKKILKYL-NH2 [(KH)9-BP100, tested as ionic complex with pDNA]”, the “luciferase activity in leaf” value with Arabidopsis thaliana L. is reported as “efficient luciferase activity was confirmed”. In addition, in data set [1] (pDNA complex), the “transfection efficiency (RLuc assay) compared to complexes having other N/P ratios” value is listed as “highest transfection efficiency”. The “incubation time showing the highest transfection efficiency” value in data set [1] (pDNA complex) was 12 h. In addition, the zeta potential entry in data set [2] (N/P ratio of 0.5 and 1) is given as “negative values”; in data set [2] (setting [5]), “positive values”. Besides, the PDI in data set [3] (N/P ratio 0.5) is given as 0.31; in data set [3] (N/P ratio 1) it was 0.30; in data set [3] (N/P ratio 2), 0.23; in data set [3] (N/P ratio 5), 0.23; in data set [3] (N/P ratio 10) it was 0.23; in data set [3] (N/P ratio 20), 0.24. Also, the “Size (average hydrodynamic diameter, DLS)” value in data set [3] (N/P ratio 0.5) stood at 291 nm; in data set [3] (N/P ratio 1) it was 322 nm; in data set [3] (N/P ratio 2), 139 nm; in data set [3] (N/P ratio 5) it was 106 nm; in data set [3] (N/P ratio 10), 96 nm; in data set [3] (N/P ratio 20), 114 nm. Also, in the data set with pDNA (N/P ratio up to 10), the “mobility of pDNA in agarose gel electrophoresis” value is “a small amount of pDNA migrated”.
For “KKLFKKILKYL [BP100, cell-penetrating peptide alone, synthesized for controls, reference compound]”, in data set [1], the “RLuc expression (relative photometric unit/protein weight)” value was found to be 120±70 RLU/mg.
As to “MLSLRQSIRFFKKHKHKHKHKHKHKHKHKH [SEQ ID NO: 43]”, the “gene introduction efficiency to mitochondria (Rluc) among N/P=0.5, 1 and 2” value in data set [4] was “a highly significant difference was shown”.
On to “RRRRRRRRRKKLFKKILKYL-NH2 [R9-BP100, tested as ionic complex with pDNA]”, for which the “transfection efficiency (RLuc assay) compared to complexes having other N/P ratios” value in data set [1] (pDNA complex) is “highest transfection efficiency”. Moreover, in data set [1] (pDNA complex, compared to (KH)9-BP100), the time-dependent transfection behavior entry is “quick and short transfection behavior”. In addition, the “incubation time showing the highest transfection efficiency” value in data set [1] (pDNA complex) was 12 h. In addition, the zeta potential result in data set [2] (N/P ratio of 0.5 and 1) is recorded as “negative values”; in data set [2] (setting [5]), “positive values”. In addition, the PDI is given as 0.34 in data set [3] (N/P ratio 0.5); 0.38 in data set [3] (N/P ratio 1); 0.21 in data set [3] (N/P ratio 2); 0.21 in data set [3] (N/P ratio 5); 0.23 in data set [3] (N/P ratio 10); 0.25 in data set [3] (N/P ratio 20). The “Size (average hydrodynamic diameter, DLS)” value is on record as 319 nm in data set [3] (N/P ratio 0.5); 321 nm in data set [3] (N/P ratio 1); 151 nm in data set [3] (N/P ratio 2); 127 nm in data set [3] (N/P ratio 5); 114 nm in data set [3] (N/P ratio 10); 116 nm in data set [3] (N/P ratio 20). Further, the “mobility of pDNA in agarose gel electrophoresis” value is given as “the same mobility as that of a free pDNA” with pDNA (N/P ratio of 0.5 to 2); “no mobility was observed” in the data set with pDNA (N/P ratio of 10 and 20).
